Assay results reported in patent US10064928B2, “Peptides and combination of peptides for use in immunotherapy against CLL and other cancers” (IMMATICS BIOTECHNOLOGIES GMBH, priority 2015, dated 2018).

What follows are substances tested against HLA-A*02:01 (Homo sapiens, UniProt P04439, D140Y/D185E/D98H/E176V/E277Q/G131W/G231S/I119V/I121R/I166T/I218V/L300P/L318F/N151K/N90K/P208A/P217A/Q86G/Q94H/R138H/R169H/T345S) (assay: MHC binding assay (UV-ligand exchange, beta2m ELISA)). Settings: binding of HLA-class I restricted peptides to HLA-A*02:01, β2m ELISA.
Method in brief: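 Exchange yield, UV-ligand exchange: 100-fold diluted samples on streptavidin plates, 1 h at 37 °C; HRP anti-β2m 1 h at 37 °C; TMB read at 450 nm.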

Substance | Peptide Exchange (MHC class I binding score, peptide exchange yield)
325 (TLENGVPCV; listed as Homo sapiens) [compound 325] | “+++” (≥50 = +++)
326 (VLAFLVHEL; listed as Homo sapiens) [compound 326] | “++++” (≥75% = ++++)
327 (VLIKWFPEV; listed as Homo sapiens) [compound 327] | “++++” (≥75% = ++++)
328 (VLLPQETAEIHL; listed as Homo sapiens) [compound 328] | “++++” (≥75% = ++++)
330 (VLMWEIYSL; listed as Homo sapiens) [compound 330] | “+++” (≥50 = +++)
331 (VLWELAHLPTL; listed as Homo sapiens) [compound 331] | “+++” (≥50 = +++)
333 (VTLEFPQLIRV; listed as Homo sapiens) [compound 333] | “+++” (≥50 = +++)
334 (YLLEEKIASL; listed as Homo sapiens) [compound 334] | “+++” (≥50 = +++)
335 (YLYQEQYFI; listed as Homo sapiens) [compound 335] | “+++” (≥50 = +++)
336 (YMAVTTQEV; listed as Homo sapiens) [compound 336] | “++++” (≥75% = ++++)
337 (YMYEKESEL; listed as Homo sapiens) [compound 337] | “++” (≥20% = ++)
338 (FLDMTNWNL; listed as Homo sapiens) [compound 338] | “++++” (≥75% = ++++)
339 (GLWGTVVNI; listed as Homo sapiens) [compound 339] | “+++” (≥50 = +++)
340 (KLLEEICNL; listed as Homo sapiens) [compound 340] | “++++” (≥75% = ++++)
341 (LLAELPASVHA; listed as Homo sapiens) [compound 341] | “+++” (≥50 = +++)
342 (SLITPLQAV; listed as Homo sapiens) [compound 342] | “+++” (≥50 = +++)
344 (VLAFENPQV; listed as Homo sapiens) [compound 344] | “+++” (≥50 = +++)
345 (YLIEPDVELQRI; listed as Homo sapiens) [compound 345] | “+++” (≥50 = +++)
346 (VLVQVSPSL; listed as Homo sapiens) [compound 346] | “+++” (≥50 = +++)
347 (YLGPVSPSL; listed as Homo sapiens) [compound 347] | “+++” (≥50 = +++)
348 (ALAKPPVVSV; listed as Homo sapiens) [compound 348] | “+++” (≥50 = +++)
349 (ALATHILSL; listed as Homo sapiens) [compound 349] | “+++” (≥50 = +++)
350 (ALEDRVWEL; listed as Homo sapiens) [compound 350] | “+++” (≥50 = +++)
351 (ALSEKLARL; listed as Homo sapiens) [compound 351] | “+++” (≥50 = +++)
352 (ALVFELHYV; listed as Homo sapiens) [compound 352] | “+++” (≥50 = +++)

Substance | Peptide Exchange (MHC class I binding score, peptide exchange yield)
353 (ATPMPTPSV; listed as Homo sapiens) [compound 353] | “++” (≥20% = ++)
354 (FIMDDPAGNSYL; listed as Homo sapiens) [compound 354] | “+++” (≥50 = +++)
355 (FIWPMLIHI; listed as Homo sapiens) [compound 355] | “+++” (≥50 = +++)
356 (FLHDHQAEL; listed as Homo sapiens) [compound 356] | “++” (≥20% = ++)
357 (FLIQEIKTL; listed as Homo sapiens) [compound 357] | “+++” (≥50 = +++)
358 (FLTDYLNDL; listed as Homo sapiens) [compound 358] | “+++” (≥50 = +++)
359 (FMQDPMEVFV; listed as Homo sapiens) [compound 359] | “+++” (≥50 = +++)
360 (HLIDTNKIQL; listed as Homo sapiens) [compound 360] | “+++” (≥50 = +++)
361 (ILQEFESKL; listed as Homo sapiens) [compound 361] | “+++” (≥50 = +++)
362 (ILTELGGFEV; listed as Homo sapiens) [compound 362] | “+++” (≥50 = +++)
363 (ITTEVVNELYV; listed as Homo sapiens) [compound 363] | “+++” (≥50 = +++)
364 (KMDWIFHTI; listed as Homo sapiens) [compound 364] | “+++” (≥50 = +++)
365 (LISPLLLPV; listed as Homo sapiens) [compound 365] | “+++” (≥50 = +++)
367 (NLWSLVAKV; listed as Homo sapiens) [compound 367] | “+++” (≥50 = +++)
369 (RLLDLENSLLGL; listed as Homo sapiens) [compound 369] | “+++” (≥50 = +++)
370 (SIFASPESV; listed as Homo sapiens) [compound 370] | “+++” (≥50 = +++)
371 (SLADDSVLERL; listed as Homo sapiens) [compound 371] | “+++” (≥50 = +++)
372 (SLFGPLPGPGPALV; listed as Homo sapiens) [compound 372] | “+++” (≥50 = +++)
373 (TLLADQGEIRV; listed as Homo sapiens) [compound 373] | “++” (≥20% = ++)
374 (VLSVITEEL; listed as Homo sapiens) [compound 374] | “+++” (≥50 = +++)
375 (VLWFKPVEL; listed as Homo sapiens) [compound 375] | “+++” (≥50 = +++)
376 (VLYNQRVEEI; listed as Homo sapiens) [compound 376] | “+++” (≥50 = +++)
377 (VVDGTCVAV; listed as Homo sapiens) [compound 377] | “+++” (≥50 = +++)
378 (YILGKFFAL; listed as Homo sapiens) [compound 378] | “+++” (≥50 = +++)
379 (YLAELVTPIL; listed as Homo sapiens) [compound 379] | “+++” (≥50 = +++)
